Drawing on patent US5821118, this text covers IC50 value (nM), inhibition of farnesylation of Ras protein for three substances.

Test [1] has as its target bovine brain farnesyl-protein transferase (bovine) (UniProt P29702).
The target of test [2] is human farnesyl-protein transferase, recombinant, expressed in E. coli from pRD516 with a C-terminal Glu-Glu-Phe epitope tag on the β subunit (human).

As for “tetrapeptide CIFM (cysteinylisolleucinyl-phenylalaninyl-methionine)”, the results for the IC50 value (nM), inhibition of farnesylation of Ras protein in test [1] and in test [2] were 10 nM and 17 nM, respectively.

For “tetrapeptide CVIM (cysteinylvalinyl-isolleucinyl-methionine)”, the IC50 value (nM), inhibition of farnesylation of Ras protein in test [1] and in test [2] was 100 nM in each case.

Regarding “tetrapeptide CVIL (cysteinylvalinyl-isolleucinyl-leucine)”, the IC50 value (nM), inhibition of farnesylation of Ras protein in test [1] stood at 20000 nM; in test [2], 6200 nM.
